Measured values: the DeepSol protein solubility set

Test: soluble on expression in E. coli; label from the status in PepcDB or PDB records

Sequence	soluble on expression in E. coli
MGSDKIHHHHHHMIDLHCHTTASDGVVTPSNVIRQASRKGIAVLAIADHDTVNGLDEAAGAAEKEGICLIPAIELSVAFPKGDFHLLGYGIQYKNENFRNKLAQLRTIREERIFRIIERLKRYGLNLTHEDLQNESQGDAPGKAHVARVLVRKRYASNFNVACKTYLNEGMPGYVPKEKLSLESACELINNAGGLSVLAHPKSLNGENHEEYERIIQMCVSHGLAGIEVYASLHDNQDVRLFLELARRHRLIATGGSDFHGDNGACLGYYGHRRPVPESCSQPLLQKISQNKT	not soluble
MGSDKIHHHHHHMIDLRSDTVTKPTEEMRKAMAQAEVGDDVYGEDPTINELERLAAETFGKEAALFVPSGTMGNQVSIMAHTQRGDEVILEADSHIFWYEVGAMAVLSGVMPHPVPGKNGAMDPDDVRKAIRPRNIHFPRTSLIAIENTHNRSGGRVVPLENIKEICTIAKEHGINVHIDGARIFNASIASGVPVKEYAGYADSVMFCLSKGLCAPVGSVVVGDRDFIERARKARKMLGGGMRQAGVLAAAGIIALTKMVDRLKEDHENARFLALKLKEIGYSVNPEDVKTNMVILRTDNLKVNAHGFIEALRNSGVLANAVSDTEIRLVTHKDVSRNDIEEALNIFEKLFRKFS	soluble
MGSDKIHHHHHHMIDSIRVEGFRGLKELELSSLRRINVIVGRNNSGKSTLLEALSLFLGSSDPGTFGNVLHEILIWRGWYGIQTVDDLFYNGGDSFSISSTGKTLEALNSKHSLEFKLNGEPFYKIDRESIRRLASQAVLLARFSPKENFEFLTPLTFRRFGYAESLYSYAYERKVVKDSIKVLNEAYPEVEGFSPLLKEDNWVLYVETKYGVYPYYLMGEGFKSAMIISFLSSLLRDGVLLIDSAEAFHHPKSLKVMIQTLVRGSEKNNVQVFLTTHSLELLDLMLEMGRDGFVIYMKNVEGRIEVESIEFQRASELRESIGVDLRGF	not soluble
MGSDKIHHHHHHMIEVSRFWRDPALPFVEARQVGDGRKVCYAAHSHESFSIGVITGGRSTYINSDQCVEVGAGTTVLMNPGVVHTCNPVAGEPWSYLMLFVDQPWLQAVGFTLPTQTWSRSPVLYRRLLQAFADLFDARLPDREARLAALFHELPGMLGGNASEGGEGNPRLDAAAAFIRAHRSDPLSLEDICGACGLSRSYLIRAFRQRFGLTPHGYLLDQRVQLARAQLRQGRSIAEVAQEAGFADQAHLQRAFKQHLAATPGHYRNAVASLGAPAGAVQALKDQVNRAGDQ	not soluble
MGSDKIHHHHHHMIFASDLDQTLIYSRKSFRAHIEDNSIQLIETLDGKEISFITYKTITLLIKLQLHSYFIPVTTRTIEQFQRITLFQNEIIPEYAITSNGGNILHNGKQDVTWNKEIKKRISVECIERNDILKEFEQIAHKDWVISQKTADDLFHYCIIKRENIPYDELSSFTSWLDKQGWNHSLQGRKLYFVPKPINKWDAVQYIQEILQMDTIITAGDSLLDLCMLEKANYAFAPLHGELGATYNHLQPHIVKTDAIGIYAAEEIVSKSLQIIHSSSPTS	not soluble
MGSDKIHHHHHHMIFVPNENNDPRVNLAIETYLLTEMPLDEPILLFYINEPSIIIGRNQNTIEEINKEYVDEHGIHVVRRLSGGGAVYHDHGNLNFSFIMPDDGNSFRDFAKVTQPIIQALHDLGVEGAELKGRNDLVINDMKFSGNAMYATNGRMFAHGTLMFDSDIDEVVNTLKVRKDKIESKGIKSVRSRVTNIKPFLSEDKQEMTTEEFRQEILLKIFGVDSIDQVKTYELTDQDWAAINKISEQYYRNWDWNYGKSPAFNLERRHRFPIGSIEMKMNVADGAIQEIKIFGDFFGLGEIKDVEDILTGVKYDKASLEEAIDQIDVKKYFGNIEKEDLLGLIY	not soluble
MGSDKIHHHHHHMIGNRNSTSLEIAMTEIDDITGFIPQPGPIALVLGATGGVGGAVARALAGRGYHVRALHRDAARMAAKQKERQPALEPVLEWVQGDAMNRDDVIYAAKDASVILHGVNPPGYRNWGTLVLPMIDNTIAAARASGACILMPGTIYNYGPDAFPLLNEESPQHPRTVKGEIRVELERRLEQAAGEGVRVILVRAGDFFGPEAGNNWFAQGLITPGKPVTQVNLPGKPGVSHSWAYLPDVAETFIRLLERVPDMPAFARFHMQGHVDTDGYAMAQAIQRVSGSDSVRFKRFAWWMVPLLSPILPVFRELLEMRYLWREPIALDNRRLVEVLGEEPRTRLDVAVATTLKSLKCLQTSAVHPDGSRSMASETAPQ	not soluble
MGSDKIHHHHHHMIHKLEMFIAVAREAHFGRAAESLGLTQPTLSTGIKQLEEMLGVQLIFRGSRYGGLTPEGQRALVWARQLVSDARTFRQEMRTARHGLSGIVRLAVIPTALTWAAHLSARFSAAHPNVRFSILSRTSAEILSMLENLEADAGLSYLDNEPLGRVTTEPLYRERHTVVAHRDSDIAMQDKVEWADLAGERLCLLTPNMQNRRIINEYFMAAGIAPEAQVESNSTVVLAAHVEAGDWITILPVDMARFLCGGKPHLVIREIEGTGMDHAVGLVAPYREPHTPVLNALISETRALAKAHA	not soluble
MGSDKIHHHHHHMIILVGGEKGGSGKSCLAQNIAVFLTVECGASVIMVDCDPQRTTSDWIQARNNNGTLASINCVQLYGKIRNDLLSLEQHYDYVIVDCGGQDNLALRATMSVASHVLMPLRPKRRDLKTVSHMDDIVATCMMINPKMRASFVITQCPSLPNQANRIFEAKEVCKTYDINVLDAITYSRNIYDDSEESGLSVMETQPKGKAAEEIRSIACEMLQASSATEIRNRLAEKQMDKLRGNYGSGRSQEKLYAV	not soluble
MGSDKIHHHHHHMIKELKTLIAVAREGTFAAAGDRIGLTQAAVSAQMQRLEAQLGVELFDRKGRSAQLNRMGQQVLLQGQELVRLYGSLGNSATGSAPNVLVTIGAIASVQRSFLPDALALFHRQFPQCRTRVIPGLSMDLVNQVDAGEVDLAAIIRPPFSLHSDLRWTTLMREPYRLIVPADLQGEDWAELISSQPFIRYDRSSFGGRQVDRFLRQTHVSLREVCELDELDAIVKLVANGVGVALVPETATIQAWPAGVRAVNLGPHTFHRDIGLVHRARRSLTEPVNVLAQLLTAQVQDTQ	not soluble
MGSDKIHHHHHHMIKHHPHAELLQAHAQGELPLSMSMAVAAHCALCQECQNQIAKLTEQAAKLAFVSSSDDPVQHNASNEIDVVDNDPWQQMLSNIMALPESTMSEPYIESSVTVSHRNIRYQIPRVFRQHIALPWQQIGKVSRMRFDIDEKNTRASLLYIEALGEIPQHTHKGFELTLLLSGEFSDSTGNYVVGDFIILDGNTQHSPTTQTGCLCYTVLDAPLYFTKGISKLLNPIGELIY	not soluble
MGSDKIHHHHHHMIKSKLKGFAAVTVACLAVTACGSDSNNEDGTDQNATYVQFYNASAGSTATALKVADKTYESVIYGDTMPRFTSTAGVSAIEVMAKDASDKDISIYKEDIDLKVATDHFFVLHGDFAEPKLLNINYSRTELDKLNEVAENSKMQLLIANTAVHAQAFDAYVSKSTQTFADAVMLGSVAYGEASQPQVMDTGEYKVYLTPAGTTNVSYTTANIKFSAKVPYKLIIREGFGASDSKITLDSVDSTTNVRNHVALEASVDYRVFNGLGSHIIDVKVASSKQETLFSEVPSFGVTAYQGAEFNDFGVSVFDHGTQNKLLDNVLITLNQDDIKTIFIYEQATEQGSQVKAMEMKQTQTPSPYSFKFDIVSFADKSNLTVYFLKANDTIETAVNKITAVNPASPQSVTVPAGEYSIKVIAVENGTKTVVYASDLMDFSNEDNVTMVLNKDPATSFGYNLIKI	not soluble
MGSDKIHHHHHHMINQAKIEHSGLVDDFIGLYQALNKDNLHLLAEVYDDNICFIDPMHQVNGLNALTQYFAKLYQNIGYIHFEIKEVLQDDTQASLFWQMQYRHPKLNKGEVVRVDGMSQLKFHQRIYFHRDYFDLGQMLYEHLPCMGGLIRLLKDRAAK	not soluble
MGSDKIHHHHHHMIRLSNENTIFFMDKENVPIASCQSGDTVIFETKDCFSDQITNEEQALTSIDFNRVNPATGPLYVEGARRGDMLEIEILDIKVGKQGVMTAAPGLGALGESLNSPTTKLFPIEGDDVVYSTGLRLPLQPMIGVIGTAPPGEPINNGTPGPHGGNLDTKDIKPGTTVYLPVEVDGALLALGDLHAAMGDGEILICGVEIAGTVTLKVNVKKERMFPLPALKTDTHFMTIASAETLDAAAVQATKNMATFLANRTALSIEEAGMLLSGAGDLYVSQIVNPLKTARFSLALHYFEKLGVDLCN	not soluble
MGSDKIHHHHHHMIRMNISVRNLKEITDLLSTIVSEAKFKVDENGMSVTAVDPAHVAMIRLEVPKEVFSEFRSDGTEEIALDIDRLKSVIRLANSSENVGITKDKEKLKFDLGNISKSVSLLDPSTIVTPKIPNIASEYYAIIKRSDFERGLRAAEDISDSIRFVLSSEGFRATSHSESEESEMVLPKDMLSDLSCSDTIKSSYPLEYLLKFIKAVSSADSLKISFRDDYPLSIEFYLDQNPSAKIKGLFLLAPRMEQ	not soluble
MGSDKIHHHHHHMIRSLWIAKTGLDAQQTQMDVISNNLANVSTNGFKRGRAVFEDLMYQNIRQPGALSSDQTTLPSGLQLGTGVRPVATERIHTQGNPQQTGNSKDVAIIGQGFFQVAMPDGTTAYTRDGSFQVDQNGQLVTSSGFVIQPAITIPANTTSMTVARDGTVSVTQPGSSNNVQVGQLQLATFMNPAGLESMGENLYVQTDASGAPNTTVPGLNGAGVLQQNYVEASNVNVVEELVSMIQTQRAYEINSKAVQTSDQMLQRLTQMG	not soluble
MGSDKIHHHHHHMISDHDGEFGSQNVRAALPSLMALRCFEAAARHEHFSRAADELHLTHGAVSRAVRLLEDDLGVALFERRSRRVFLTDAGRKLAQAVHDGLHLMRQAAHELRTDAARAQRWVLSCEPTLLMRWLIPRWPDFQATYPRVDIHLAAAGGPFSFDHGIDIAIRRNDFAWPAGYHAERLFTERVGPVCRPDRVDTWFSGGRDDRALKRGAPRLHTRTRPDAWKEWAAAAHQPAGSGRGQMFDHFYFSLQAAVAGLGVAIGPWHLVRDDLESEVLVAPMGFVQDGSHYCLLTPEPVKDGSAQSALLDWLRTMA	not soluble
MGSDKIHHHHHHMISHKKDQAAGLRELTALEPNAGVRVFAVVGGRTGVGKTSSVINLAVALAKTGKRVLILDENPRHKDVNANLGLSARYDLLHVINQDKTLEQVMTQGPEDVLVLTAMRGIHSLAKLSSADQERLIQCFSELSQTVDVVLIDTAIGRTSRVVPLSLASQQVLIVLSASGKAITDAYALIKLISQEYARRDFLVLVNKVESESMGRDIFENIAGVAQKHLAVKLEWMGCILFDEKLQRSTRLCQPVVEIFPTSASAAGYRQLAEKLMRCAGPWTDNDGVENFMRRLIRTSHLDIADFTV	not soluble
MGSDKIHHHHHHMISKLAEIVGEEWVISGDEAKLYSYPAFIPLKIEPPVVVLPGSEEEVISLVNFLNENNIKYIVRGSGTSLSGATTPTQGEVVISLTRLNRIYSLDNFEITVGPGLANFLINKTLGNSNLFYAPDPSSYVVSSIGGNISHDSGGMHTPKYGTTFDSIIRLKVLLSNGHVEEIGSSNFFDPTSIFVGAEGTLGVILRATLRLFPKPEVSKTILASFNSIDDAGKAVVSVYKAGVTPAAMEFLDKNSIIAIENTQYKANYPMAEAILLIELDGYSVNVEEEEVRVVSAIRNNNGEVFIPKDEEEKNRWWWGRKGAFPSFAYYSPAYLTLDANVPRSTLPTMLRFTYEISKKYGLPVANSFHAGDGTLHPLIGFDPKNADETIKAIKAAEEITKLAIKVGGVPSGEHGIGIEKIKFMKLYYSEDDLTLMRRLKATFDPKRLLNPCKLIPPAKNEICNTVNRIHTYLLEGDI	not soluble
MGSDKIHHHHHHMISRTIQQLEDALGQQLFYRNTRAITPTESGKLFFEYAKRITEQFDEAQKALQDKTIEPSGLVRINAPVFFGQRHIAPWLAGLSERYPRLLIELIQTDEFIDPLRESTDLIFRIGALTDSSFHARIFGTQKYHLAASPQYVAKYGTLDHPTELNQHKCLVYKGFEGPNRWLVRKPNEEWVHYPITPLLSSNNAESLMTAALHSMGIVLFPDWLIGEALKKGDLIKLLPEYEVAIKSPPQHIAAIYPNVRHPPLNIRAVIDYFAEIYGDTPYWQN	not soluble
